According to US20140099324A1 (University of Texas, published 2014):

B1: anti-HERV-K env monoclonal antibody 6H5 (antibody, V domains shown)
VH: MAQVKLQQSGPDLVKPGASVKISCKASGYSFTGYYMHWVKQSHGKSLEWIGRVNPNSGGTSYNQKFKDKAILTVDKSSSTAYMELRSLTSEDSAVYYCARSKGNYFYAMDY
VL: ASLAVSLGQRATISCRASESVDSHGTSFMHWYQQKPGQPPKFLIYRASNLESGIPARFSGSGSRTDFTLTINPVETDDVAIYYCQQSNEDPPTFGGGTKLEIK

Columns and labels:
[1] = target: HERV-K recombinant fusion protein K10Q18 (K-SU in pQE30, N-terminal 6-His) (human endogenous retrovirus K); experiment: flow cytometry on dendritic cells pulsed with the protein
[2] = target: T1, HERV-K env protein expressed endogenously by human cancer cell lines (human endogenous retrovirus K); experiment: cell-based or functional assay
T1 chain: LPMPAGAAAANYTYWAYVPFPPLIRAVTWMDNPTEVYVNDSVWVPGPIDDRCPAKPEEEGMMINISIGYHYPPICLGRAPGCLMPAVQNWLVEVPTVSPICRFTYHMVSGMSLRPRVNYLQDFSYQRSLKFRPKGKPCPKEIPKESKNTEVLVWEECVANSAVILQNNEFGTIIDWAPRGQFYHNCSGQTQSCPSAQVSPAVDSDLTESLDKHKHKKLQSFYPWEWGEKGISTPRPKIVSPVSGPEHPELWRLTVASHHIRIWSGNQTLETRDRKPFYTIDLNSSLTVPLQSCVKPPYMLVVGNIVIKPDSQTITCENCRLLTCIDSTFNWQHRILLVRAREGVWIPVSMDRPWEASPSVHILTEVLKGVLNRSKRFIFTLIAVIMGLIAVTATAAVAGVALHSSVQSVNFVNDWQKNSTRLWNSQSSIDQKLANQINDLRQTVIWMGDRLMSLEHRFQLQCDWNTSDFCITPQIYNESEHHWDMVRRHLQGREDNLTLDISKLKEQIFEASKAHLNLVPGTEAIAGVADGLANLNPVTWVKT

Molecule	percent of DCs positive [1] [%]	IC50, cytotoxicity toward MCF-7 breast cancer cells (72 h, crystal violet) [2] [nM]	IC50, cytotoxicity toward MDA-MB-231 breast cancer cells (72 h, crystal violet) [2] [nM]
anti-RGS monoclonal antibody (Qiagen)	> 70	–	–
B1	–	51.7	6.6
